Bridges are numbered along the chain shown (N, C = ends). Where no end group is shown, it is not given here. [ ]: non-standard residue; d: D form. The star is where a group is joined. Biotin = O=C1N[C@H]2[C@H](CS[C@H]2CCCCC(=O)*)N1; R8 = C=CCCCCCC[C@@](C)(N)C(=O)O; Cba = N[C@@H](CC1CCC1)C(=O)O; S5 = C=CCCC[C@](C)(N)C(=O)O
Molecular target: T1, recombinant HDMX (amino acids 1-490 of SEQ ID NO:104) (Homo sapiens, UniProt O15151)
T1 construct: thioredoxin (N, cleaved yes); S tag (N, cleaved yes); hexahistidine (N, cleaved yes); made in house; host or cells: E. coli (inferred: pET32-LIC vector, handled as described for HDM2 in BL21(DE3))
T1 sequence (O15151 1-490): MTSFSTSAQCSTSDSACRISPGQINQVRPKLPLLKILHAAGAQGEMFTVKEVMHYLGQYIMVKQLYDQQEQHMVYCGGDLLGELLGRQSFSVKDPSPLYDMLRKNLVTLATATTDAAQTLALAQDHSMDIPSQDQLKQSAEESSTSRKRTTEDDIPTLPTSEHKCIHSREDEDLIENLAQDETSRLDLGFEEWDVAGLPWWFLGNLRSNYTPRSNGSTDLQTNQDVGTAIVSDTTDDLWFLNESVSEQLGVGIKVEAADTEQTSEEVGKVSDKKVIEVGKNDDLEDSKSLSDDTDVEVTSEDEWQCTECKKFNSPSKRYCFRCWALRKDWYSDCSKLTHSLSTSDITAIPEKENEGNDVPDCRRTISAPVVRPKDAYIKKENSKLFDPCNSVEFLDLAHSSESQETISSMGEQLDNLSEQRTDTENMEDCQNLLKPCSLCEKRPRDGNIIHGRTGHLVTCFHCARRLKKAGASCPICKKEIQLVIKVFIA
Test: Competitive streptavidin pull-down of biotinylated peptides with 1:1 recombinant HDM2/HDMX mixture, HDMX western
Format: binding
Details: biotinylated stapled peptide, 1:1 mixture of recombinant HDM2 and HDMX

| Substance | HDMX versus HDM2 binding selectivity | other results |
| --- | --- | --- |
| SAH-p53-4 T18R: Formula (I) stapled peptide: [Xaa]w LSQERF, [Xaa]x DLWKLL, [Xaa]y EN (LSQERF[R8]DLWKLL[S5]EN-NH2; staple 7-14; not fully specified) | selectivity to HDM2 | – |
| SAH-p53-4 L25E: Formula (I) stapled peptide: [Xaa]w LSQETF, [Xaa]x DLWKEL, [Xaa]y EN (LSQETF[R8]DLWKEL[S5]EN-NH2; staple 7-14; not fully specified) | dual selectivity to HDMX and HDM2 | – |
| LTF8EYWEQBXEAA (LTF[R8]EYWEQ[Cba][S5]EAA-NH2; staple 4-11; not fully specified (N-terminus); printed as LTF8EYWEQBXEAA) [ATSP-7041 A24E/S28E] | restored dual HDM2/HDMX binding selectivity | HDMX versus HDM2 binding selectivity (listed as SEQ ID NO:81): dual-selectivity to HDMX and HDM2 |
| SAH-p53-4 S15R: Formula (I) stapled peptide: [Xaa]w LRQETF, [Xaa]x DLWKLL, [Xaa]y EN (LRQETF[R8]DLWKLL[S5]EN-NH2; staple 7-14; not fully specified) | selectivity to HDM2 | – |
| ATSP-7041 B26S (Biotin-LTF[R8]EYWAQS[S5]SAA-NH2; staple 4-11; SMILES CC(C)C[C@H](NC(=O)CCCC[C@@H]1SC[C@@H]2NC(=O)N[C@@H]21)C(=O)N[C@H](C(=O)N[C@@H](Cc1ccccc1)C(=O)N[C@]1(C)CCCCCCC=CCCC[C@@](C)(C(=O)N[C@@H](CO)C(=O)N[C@@H](C)C(=O)N[C@@H](C)C(N)=O)NC(=O)[C@H](CO)NC(=O)[C@H](CCC(N)=O)NC(=O)[C@H](C)NC(=O)[C@H](Cc2c[nH]c3ccccc23)NC(=O)[C@H](Cc2ccc(O)cc2)NC(=O)[C@H](CCC(=O)O)NC1=O)[C@@H](C)O) | HDMX selectivity over HDM2 | – |
| SAH-p53-4 Q16E: Formula (I) stapled peptide: [Xaa]w LSEETF, [Xaa]x DLWKLL, [Xaa]y EN (LSEETF[R8]DLWKLL[S5]EN-NH2; staple 7-14; not fully specified (N-terminus)) | HDMX selectivity over HDM2 | HDMX versus HDM2 binding selectivity (listed as SEQ ID NO:32): selectivity to HDMX |
| ATSP-7041 B26N (Biotin-LTF[R8]EYWAQN[S5]SAA-NH2; staple 4-11; SMILES CC(C)C[C@H](NC(=O)CCCC[C@@H]1SC[C@@H]2NC(=O)N[C@@H]21)C(=O)N[C@H](C(=O)N[C@@H](Cc1ccccc1)C(=O)N[C@]1(C)CCCCCCC=CCCC[C@@](C)(C(=O)N[C@@H](CO)C(=O)N[C@@H](C)C(=O)N[C@@H](C)C(N)=O)NC(=O)[C@H](CC(N)=O)NC(=O)[C@H](CCC(N)=O)NC(=O)[C@H](C)NC(=O)[C@H](Cc2c[nH]c3ccccc23)NC(=O)[C@H](Cc2ccc(O)cc2)NC(=O)[C@H](CCC(=O)O)NC1=O)[C@@H](C)O) | HDMX selectivity over HDM2 | – |
| LTF8EYWAQBXAAA (Biotin-LTF[R8]EYWAQ[Cba][S5]AAA-NH2; staple 4-11) [ATSP-7041 S28A] | restored dual HDM2/HDMX binding selectivity | HDMX versus HDM2 binding selectivity (listed as SEQ ID NO:79): dual-selectivity to HDMX and HDM2 |
| SAH-p53-4 S15A: Formula (I) stapled peptide: [Xaa]w LAQETF, [Xaa]x DLWKLL, [Xaa]y EN (LAQETF[R8]DLWKLL[S5]EN-NH2; staple 7-14; not fully specified) | selectivity to HDM2 | – |
| ATSP-7041 B26K (Biotin-LTF[R8]EYWAQK[S5]SAA-NH2; staple 4-11; SMILES CC(C)C[C@H](NC(=O)CCCC[C@@H]1SC[C@@H]2NC(=O)N[C@@H]21)C(=O)N[C@H](C(=O)N[C@@H](Cc1ccccc1)C(=O)N[C@]1(C)CCCCCCC=CCCC[C@@](C)(C(=O)N[C@@H](CO)C(=O)N[C@@H](C)C(=O)N[C@@H](C)C(N)=O)NC(=O)[C@H](CCCCN)NC(=O)[C@H](CCC(N)=O)NC(=O)[C@H](C)NC(=O)[C@H](Cc2c[nH]c3ccccc23)NC(=O)[C@H](Cc2ccc(O)cc2)NC(=O)[C@H](CCC(=O)O)NC1=O)[C@@H](C)O) | HDMX selectivity over HDM2 | HDMX versus HDM2 binding selectivity (listed as SEQ ID NO:64): selectivity to HDMX |
| SAH-p53-4 T18E: Formula (I) stapled peptide: [Xaa]w LSQEEF, [Xaa]x DLWKLL, [Xaa]y EN (LSQEEF[R8]DLWKLL[S5]EN-NH2; staple 7-14; not fully specified) | dual selectivity to HDMX and HDM2 | – |
| SAH-p53-4 L25A: Formula (I) stapled peptide: [Xaa]w LSQETF, [Xaa]x DLWKAL, [Xaa]y EN (LSQETF[R8]DLWKAL[S5]EN-NH2; staple 7-14; also: biotinylated) | dual selectivity to HDMX and HDM2 | – |
| ATSP-7041 B26V (Biotin-LTF[R8]EYWAQV[S5]SAA-NH2; staple 4-11; SMILES CC(C)C[C@H](NC(=O)CCCC[C@@H]1SC[C@@H]2NC(=O)N[C@@H]21)C(=O)N[C@H](C(=O)N[C@@H](Cc1ccccc1)C(=O)N[C@]1(C)CCCCCCC=CCCC[C@@](C)(C(=O)N[C@@H](CO)C(=O)N[C@@H](C)C(=O)N[C@@H](C)C(N)=O)NC(=O)[C@H](C(C)C)NC(=O)[C@H](CCC(N)=O)NC(=O)[C@H](C)NC(=O)[C@H](Cc2c[nH]c3ccccc23)NC(=O)[C@H](Cc2ccc(O)cc2)NC(=O)[C@H](CCC(=O)O)NC1=O)[C@@H](C)O) | HDMX selectivity over HDM2 | – |
| SAH-p53-4 Q16R: Formula (I) stapled peptide: [Xaa]w LSRETF, [Xaa]x DLWKLL, [Xaa]y EN (LSRETF[R8]DLWKLL[S5]EN-NH2; staple 7-14; not fully specified) | dual selectivity to HDMX and HDM2 | – |
| SAH-p53-4 K24R: Formula (I) stapled peptide: [Xaa]w LSQETF, [Xaa]x DLWRLL, [Xaa]y EN (LSQETF[R8]DLWRLL[S5]EN-NH2; staple 7-14; not fully specified (N-terminus)) | dual selectivity to HDMX and HDM2 | – |
| SAH-p53-4 E28R: Formula (I) stapled peptide: [Xaa]w LSQETF, [Xaa]x DLWKLL, [Xaa]y RN (LSQETF[R8]DLWKLL[S5]RN-NH2; staple 7-14; not fully specified (N-terminus)) | dual selectivity to HDMX and HDM2 | – |
| SAH-p53-4 N29E: Formula (I) stapled peptide: [Xaa]w LSQETF, [Xaa]x DLWKLL, [Xaa]y EE (LSQETF[R8]DLWKLL[S5]EE-NH2; staple 7-14; not fully specified) | dual selectivity to HDMX and HDM2 | – |
| SAH-p53-4 K24A: Formula (I) stapled peptide: [Xaa]w LSQETF, [Xaa]x DLWALL, [Xaa]y EN (LSQETF[R8]DLWALL[S5]EN-NH2; staple 7-14; not fully specified (N-terminus)) | selectivity to HDM2 | – |
| SAH-p53-4 T18A: Formula (I) stapled peptide: [Xaa]w LSQEAF, [Xaa]x DLWKLL, [Xaa]y EN (LSQEAF[R8]DLWKLL[S5]EN-NH2; staple 7-14; not fully specified) | dual selectivity to HDMX and HDM2 | – |
| SAH-p53-4 Q16A: Formula (I) stapled peptide: [Xaa]w LSAETF, [Xaa]x DLWKLL, [Xaa]y EN (LSAETF[R8]DLWKLL[S5]EN-NH2; staple 7-14; not fully specified) | dual selectivity to HDMX and HDM2 | – |
| SAH-p53-4 E17R: Formula (I) stapled peptide: [Xaa]w LSQRTF, [Xaa]x DLWKLL, [Xaa]y EN (LSQRTF[R8]DLWKLL[S5]EN-NH2; staple 7-14; not fully specified (N-terminus)) | dual selectivity to HDMX and HDM2 | – |
| ATSP-7041 B26Q (Biotin-LTF[R8]EYWAQQ[S5]SAA-NH2; staple 4-11; SMILES CC(C)C[C@H](NC(=O)CCCC[C@@H]1SC[C@@H]2NC(=O)N[C@@H]21)C(=O)N[C@H](C(=O)N[C@@H](Cc1ccccc1)C(=O)N[C@]1(C)CCCCCCC=CCCC[C@@](C)(C(=O)N[C@@H](CO)C(=O)N[C@@H](C)C(=O)N[C@@H](C)C(N)=O)NC(=O)[C@H](CCC(N)=O)NC(=O)[C@H](CCC(N)=O)NC(=O)[C@H](C)NC(=O)[C@H](Cc2c[nH]c3ccccc23)NC(=O)[C@H](Cc2ccc(O)cc2)NC(=O)[C@H](CCC(=O)O)NC1=O)[C@@H](C)O) | HDMX selectivity over HDM2 | – |
| SAH-p53-4 S15E: Formula (I) stapled peptide: [Xaa]w LEQETF, [Xaa]x DLWKLL, [Xaa]y EN (LEQETF[R8]DLWKLL[S5]EN-NH2; staple 7-14; not fully specified) | selectivity to HDM2 | – |

Reference: patent US20230192789A1, “STRUCTURALLY-STABILIZED AND HDMX-SELECTIVE P53 PEPTIDES AND USES THEREOF” (Dana-Farber Cancer Institute, Inc., priority 2020, published 2023)
